Assay results: patent publication US20180030137A1 (ADURO BIOTECH HOLDINGS EUROPE B V, published 2018)
Several values for one entry are separate records, joined by “and”; a condition that tells them apart may be missing. Equal entries are not always repeated.

Key:
[1] = target: T1, Human PD-1 (Swiss-Prot entry Q15116), full length, on cells (human, UniProt Q15116 21-288); test: CELISA on CHO-K1.hPDCD1 cells
T1 construct: Full length open reading frame of hPD-1 stably expressed on CHO-K1 cells; also endogenous PD-1 on CD3/CD28-stimulated human CD3+ T cells and PD-1 on transfected Jurkat cells; also called hPD-1; hPDCD1
Method: To further characterize these mutant hPD-1 antibodies they were tested for binding to hPD-1 in CELISA format using CHO-K1 cells (American Type Culture Collection, Manassas, Va.), stably transfected with cDNA encoding the full length open reading frame of hPDCD1 (hPD-1), subcloned into the pCI-neo vector (Promega). Parental CHO-K1 or CHO-K1.hPDCD1 cells were seeded in culture medium (DMEM-F12 (Gibco) with 10% Fetal Bovine Serum (Hyclone) and Pen/Strep (Gibco)) in tissue culture plates and incubated for 48 hours at 37° C. Subsequently culture medium was removed and cells were incubated for 1 hour at 37° C. with the mutant hPD-1 antibodies (10 μg/ml (=66 nM) and dilutions thereof). Next, cells were washed with Phosphate-Buffered Saline/0.05% Tween (PBST) and incubated for 1 hour at 37° C. with Goat-anti-human IgG-HRP (Southern Biotech). Subsequently, cells were washed 3 times with PBST and anti-hPD1 immunoreactivity was visualized with 100 al TMB Stabilized Chromagen (Invitrogen). Reactions were stopped with 100 al 0.5 M H2SO4 and absorbances were read at 450 and 610 nm. […] Blockade of hPD-L1 binding by the mutant hPD-1 antibodies was tested in CELISA format. Parental CHO-K1 or CHO-K1.hPDCD1 cells were seeded in tissue culture plates and incubated for 72 hours at 37° C. in culture medium. Subsequently culture medium was removed and cells were incubated for 1 hour with the mutant hPD-1 antibodies (10 μg/ml (=66 nM) and dilutions thereof) at 37° C. […] Cells were then washed three times with PBST followed by addition of Streptavidin-HRP conjugate on the cells, which was incubated for 1 hour at 37° C. […] Reactions were stopped with 100 al 0.5 M H2SO4 and absorbances were read at 450 and 610 nm. Calculated IC50 values in Table 12 for the blockade of hPD-L1 represent the concentration at which half of the inhibition is observed.

[2] = target: T1, Human PD-1 (Swiss-Prot entry Q15116), …; test: flow cytometry on CD3/CD28-stimulated human CD3+ T cells, three donors; CD3/CD28 stimulated human T cells, three donors
Method: (§1) Cells were stored in liquid nitrogen and retrieved from the freezer on the day of the experiment. Since endogenous expression of hPD-1 on resting T cells is low, the thawed CD3+ T cells were stimulated with αCD3/αCD28 coated beads (Gibco) for 48 hours.

[3] = target: T2, Macaca fascicularis PD-1 (Swiss-Prot entry B0LAJ3), full length, on cells (Macaca fascicularis, UniProt Q15116 25-288 (human entry)); test: flow cytometry on CD3/CD28-stimulated cynomolgus PBMCs, three animals
T2 construct: Full length open reading frame transiently expressed on CHO-K1 cells; also endogenous PD-1 on CD3/CD28-stimulated cynomolgus PBMCs; No signal peptide limits are stated for the cynomolgus entry; also called cyno PD-1; cynomolgus PD-1
T2 chain: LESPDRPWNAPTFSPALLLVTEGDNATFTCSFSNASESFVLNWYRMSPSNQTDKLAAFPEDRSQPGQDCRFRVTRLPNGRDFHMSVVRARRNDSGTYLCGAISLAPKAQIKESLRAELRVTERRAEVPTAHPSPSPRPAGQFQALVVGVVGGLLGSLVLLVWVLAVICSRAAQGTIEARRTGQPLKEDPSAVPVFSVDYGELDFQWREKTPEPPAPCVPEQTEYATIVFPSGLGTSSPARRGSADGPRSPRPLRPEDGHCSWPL
Method: (§2) To this end Macacaca fascicularis (cynomolgus) blood was diluted 1:1 with PBS and added to 50 ml tubes containing 13 ml Lymphoprep 95%/PBS 5%. Cells were centrifuged for 30′ at 450 g and 20° C. without brake. Next, plasma was removed by aspiration and PBMCs were recovered from the plasma/Ficoll interface. PBMCs were washed twice times in PBS. Cells were frozen in liquid nitrogen and retrieved from the freezer on the day of the experiment. Since endogenous expression of PD-1 on resting T cells is low thus the thawed PBMCs were stimulated with αCD3/αCD28 coated beads (Gibco) for 48 hours.

[4] = target: T2, Macaca fascicularis PD-1 (Swiss-Prot …); test: flow cytometry, Binding (%), on anti-CD3/anti-CD28 stimulated cynomolgus PBMCs; animal #1 or #3, same marker in the legend
Method: as §2

[5] = target: T2, Macaca fascicularis PD-1 (Swiss-Prot …); test: CELISA on CHO-K1 cells transiently transfected with cyno PD-1
Method: Parental CHO-K1 or CHO-K1.cynoPD1 cells were seeded in tissue culture plates and incubated for 48 hours at 37° C. Subsequently culture medium was removed and cells were incubated for 1 hour with purified hPD-1 antibodies (10 μg/ml (=66 nM) and dilutions thereof) at 37° C. Next, cells were washed with PBST and incubated for 1 hour at 37° C. with Goat-anti-human (Jackson Immuno Research). Subsequently, cells were washed 3 times with PBST and anti-hPD1 immunoreactivity was visualized with 100 μL TMB Stabilized Chromagen (Invitrogen). Reactions were stopped with 100 μL 0.5 M H2SO4 and absorbances were read at 450 and 610 nm.

[6] = target: T1, Human PD-1 (Swiss-Prot entry Q15116), …; test: flow cytometry, Binding (%), on anti-CD3/anti-CD28 stimulated human CD3+ T cells, donor #2
Method: as §1

[7] = target: T1, Human PD-1 (Swiss-Prot entry Q15116), …; test: CELISA on CHO-K1.hPDCD1 cells; remark: listed apart in the source
Method: To further characterize these mutant hPD-1 antibodies they were tested for binding to hPD-1 in CELISA format using CHO-K1 cells (American Type Culture Collection, Manassas, Va.), stably transfected with cDNA encoding the full length open reading frame of hPDCD1 (hPD-1), subcloned into the pCI-neo vector (Promega). Parental CHO-K1 or CHO-K1.hPDCD1 cells were seeded in culture medium (DMEM-F12 (Gibco) with 10% Fetal Bovine Serum (Hyclone) and Pen/Strep (Gibco)) in tissue culture plates and incubated for 48 hours at 37° C. Subsequently culture medium was removed and cells were incubated for 1 hour at 37° C. with the mutant hPD-1 antibodies (10 μg/ml (=66 nM) and dilutions thereof). Next, cells were washed with Phosphate-Buffered Saline/0.05% Tween (PBST) and incubated for 1 hour at 37° C. with Goat-anti-human IgG-HRP (Southern Biotech). Subsequently, cells were washed 3 times with PBST and anti-hPD1 immunoreactivity was visualized with 100 al TMB Stabilized Chromagen (Invitrogen). Reactions were stopped with 100 al 0.5 M H2SO4 and absorbances were read at 450 and 610 nm. […] Blockade of hPD-L1 binding by the mutant hPD-1 antibodies was tested in CELISA format. […] Reactions were stopped with 100 al 0.5 M H2SO4 and absorbances were read at 450 and 610 nm. Calculated IC50 values in Table 12 for the blockade of hPD-L1 represent the concentration at which half of the inhibition is observed.

[8] = target: T2, Macaca fascicularis PD-1 (Swiss-Prot …); test: flow cytometry, Binding (%), on anti-CD3/anti-CD28 stimulated cynomolgus PBMCs, animal #2
Method: as §2

T1 sequence (Q15116 21-288, one chain of several): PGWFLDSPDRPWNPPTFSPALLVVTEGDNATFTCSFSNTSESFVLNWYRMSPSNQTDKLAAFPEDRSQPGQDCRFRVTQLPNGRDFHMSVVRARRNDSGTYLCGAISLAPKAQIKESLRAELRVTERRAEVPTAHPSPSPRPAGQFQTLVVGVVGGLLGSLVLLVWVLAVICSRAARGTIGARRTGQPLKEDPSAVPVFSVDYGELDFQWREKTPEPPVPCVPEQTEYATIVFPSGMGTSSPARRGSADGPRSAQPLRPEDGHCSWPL

- EC50 [1]: 0.3 nM
- EC50 [2]: 0.27 nM
- EC50 [3]: 1.6 nM
- EC50 (read off the curve) [4]: ~1 nM and ~2 nM
- EC50 [5]: 0.45 nM
- EC50 (read off the curve) [6]: ~0.2 nM
- EC50 [7]: 0.13 nM
- EC50 (read off the curve) [8]: ~2 nM
B1: hPD1.29H5L4 (antibody, V domains shown)
VH: EVQLVQSGAEVKKPGASVKVSCKASGYIFTTYYIHWVKQAPGKGLEWIGWIFPGDVSTQYNEKFQDKATITVDKSASTAYMQLSSLRSEDTAVYYCTREAYDYAVYWGQGTLVTVSS
VL: DIQMTQAPSSLSASVGDRVTITCKASQNVDTNVAWFQQKPGKAPKSLIFSASYRYSGVPSRFSGSGSGTDFTLTISSLQPEDFATYYCQQYNNYPFTFGGGTKLEIK
notes: Expressed as human IgG4, kappa with the stabilizing S241P (Kabat) hinge mutation in HEK293 cells; also called humanized PD-1 antibody hPD1.29H5L4
